B1: library; numbered along this chain (parent)
chain: MAAAGGARLLRAASAVLGGPAGRWLHHAGSRAGSSGLLRNRGPGGSAEASRSLSVSARARSSSEDKITVHFINRDGETLTTKGKVGDSLLDVVVENNLDIDGFGACEGTLACSTCHLIFEDHIYEKLDAITDEENDMLDLAYGLTDRSRLGCQICLTKSMDNMTVRVPETVADARQSIDVGKTS

Variants of: B1
Experiment: scaled log2 fold change in cell abundance, elesclomol vs control (0 = silent mean, 1 = nonsense mean) (scaled log2 ratio); higher = higher viability under elesclomol (loss of FDX1 cuproptosis function)
Conditions: glucose 10 mM
[1] = with ABC1 FDX1 KO, elesclomol 5 nM, 14 days
[2] = with HEK293T FDX1 KO, elesclomol 40 nM, 11 days
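Further: variant abundance is its share of total variant reads in each endpoint sample, from next-generation sequencing of the integrated ORF PCR-amplified out of genomic DNA.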

I130M
scaled log2 fold change [1]: 0.336
scaled log2 fold change [2]: -0.481

I130E
scaled log2 fold change [1]: -0.051
scaled log2 fold change [2]: -0.419

I130A
scaled log2 fold change [1]: 0.429

I130W
scaled log2 fold change [1]: -0.285
scaled log2 fold change [2]: -0.314

I130D
scaled log2 fold change [1]: 0.59
scaled log2 fold change [2]: 0.0795

I130G
scaled log2 fold change [1]: -0.279
scaled log2 fold change [2]: -0.433

I130C
scaled log2 fold change [1]: -0.188
scaled log2 fold change [2]: 1.38

I130F
scaled log2 fold change [1]: 0.211
scaled log2 fold change [2]: -0.285

I130T
scaled log2 fold change [1]: -0.0905
scaled log2 fold change [2]: -0.0285

I130S
scaled log2 fold change [1]: 0.236
scaled log2 fold change [2]: 0.715

I130R
scaled log2 fold change [1]: -0.234
scaled log2 fold change [2]: 0.125

I130L
scaled log2 fold change [1]: -0.083
scaled log2 fold change [2]: -0.116

D136E
scaled log2 fold change [1]: 0.196
scaled log2 fold change [2]: 0.183

D136I
scaled log2 fold change [1]: 0.422
scaled log2 fold change [2]: -0.019

D136C
scaled log2 fold change [1]: 0.0368
scaled log2 fold change [2]: 0.938

D136R
scaled log2 fold change [1]: 0.898
scaled log2 fold change [2]: 1.08

D136N
scaled log2 fold change [1]: 0.198
scaled log2 fold change [2]: -0.651

D136F
scaled log2 fold change [1]: 0.493
scaled log2 fold change [2]: -0.85

D136Y
scaled log2 fold change [1]: 0.0478
scaled log2 fold change [2]: -0.0361

D136V
scaled log2 fold change [1]: 0.459
scaled log2 fold change [2]: 0.696

D136W
scaled log2 fold change [1]: 0.188
scaled log2 fold change [2]: 0.105

D136H
scaled log2 fold change [1]: 0.556
scaled log2 fold change [2]: 0.766

D136G
scaled log2 fold change [1]: 0.589
scaled log2 fold change [2]: 0.805

D136P
scaled log2 fold change [1]: 0.922
scaled log2 fold change [2]: 1.19

D136Q
scaled log2 fold change [1]: 0.344
scaled log2 fold change [2]: 0.87

D136K
scaled log2 fold change [1]: 0.913
scaled log2 fold change [2]: 0.124

D136S
scaled log2 fold change [1]: 0.133
scaled log2 fold change [2]: 0.338

D136M
scaled log2 fold change [1]: 0.136
scaled log2 fold change [2]: -0.421

D136L
scaled log2 fold change [1]: 0.751
scaled log2 fold change [2]: 0.113

D136A
scaled log2 fold change [1]: 0.243
scaled log2 fold change [2]: -0.0274

D136T
scaled log2 fold change [1]: 0.611
scaled log2 fold change [2]: 0.431

D128R
scaled log2 fold change [1]: -1.26
scaled log2 fold change [2]: -0.293

D128V
scaled log2 fold change [1]: 0.419
scaled log2 fold change [2]: -0.465

D128C
scaled log2 fold change [1]: 0.113
scaled log2 fold change [2]: 0.174

D128S
scaled log2 fold change [1]: -0.519
scaled log2 fold change [2]: 1.1

D128Q
scaled log2 fold change [1]: -0.253

D128K
scaled log2 fold change [1]: -0.0506
scaled log2 fold change [2]: -0.0961

D128E
scaled log2 fold change [1]: 0.267
scaled log2 fold change [2]: 0.301

D128I
scaled log2 fold change [1]: -0.0983
scaled log2 fold change [2]: -0.34

D128Y
scaled log2 fold change [1]: -0.45
scaled log2 fold change [2]: 0.0308

D128T
scaled log2 fold change [1]: -0.378

D128N
scaled log2 fold change [1]: -0.106
scaled log2 fold change [2]: -0.13

D128M
scaled log2 fold change [1]: -0.149
scaled log2 fold change [2]: -0.00382

D128G
scaled log2 fold change [1]: 0.0426

D128P
scaled log2 fold change [1]: 0.196

D128W
scaled log2 fold change [1]: -0.0394
scaled log2 fold change [2]: -0.406

D128H
scaled log2 fold change [1]: 0.277

D128L
scaled log2 fold change [1]: 0.397
scaled log2 fold change [2]: -0.761

D128A
scaled log2 fold change [1]: -0.474
scaled log2 fold change [2]: -0.104

D128F
scaled log2 fold change [1]: -0.376
scaled log2 fold change [2]: 0.338

T131V
scaled log2 fold change [1]: -0.238
scaled log2 fold change [2]: 0.525

T131I
scaled log2 fold change [1]: -0.0956
scaled log2 fold change [2]: 0.347

T131R
scaled log2 fold change [1]: -0.448
scaled log2 fold change [2]: 0.487

T131M
scaled log2 fold change [1]: 0.154

T131K
scaled log2 fold change [1]: -0.138
scaled log2 fold change [2]: 2.11

T131S
scaled log2 fold change [1]: 0.0867

T131F
scaled log2 fold change [1]: -1.03
scaled log2 fold change [2]: 0.443

T131E
scaled log2 fold change [1]: 0.357
scaled log2 fold change [2]: -0.395

T131H
scaled log2 fold change [1]: -0.186
scaled log2 fold change [2]: 0.267

T131N
scaled log2 fold change [1]: 0.126
scaled log2 fold change [2]: -0.681

T131W
scaled log2 fold change [1]: 0.374
scaled log2 fold change [2]: -0.135

T131L
scaled log2 fold change [1]: -0.29
scaled log2 fold change [2]: 0.562

T131A
scaled log2 fold change [1]: -0.777
scaled log2 fold change [2]: 0.0649

T131D
scaled log2 fold change [1]: 0.127
scaled log2 fold change [2]: -0.23

T131C
scaled log2 fold change [1]: -0.2
scaled log2 fold change [2]: -0.521

T131Q
scaled log2 fold change [1]: 0.134
scaled log2 fold change [2]: 0.928

T131G
scaled log2 fold change [1]: 0.277

T131P
scaled log2 fold change [1]: 0.137
scaled log2 fold change [2]: -0.104

T131Y
scaled log2 fold change [1]: 0.17
scaled log2 fold change [2]: -0.668

N135S
scaled log2 fold change [1]: 0.055
scaled log2 fold change [2]: -0.262

N135I
scaled log2 fold change [1]: -0.261
scaled log2 fold change [2]: 0.197

N135L
scaled log2 fold change [1]: 0.151
scaled log2 fold change [2]: 0.661

N135A
scaled log2 fold change [1]: -0.0811
scaled log2 fold change [2]: -0.437

N135Y
scaled log2 fold change [1]: 0.0894
scaled log2 fold change [2]: 0.75

N135R
scaled log2 fold change [1]: -0.532
scaled log2 fold change [2]: 1.02

N135E
scaled log2 fold change [1]: -0.00674
scaled log2 fold change [2]: 0.0823

N135C
scaled log2 fold change [1]: 0.138

N135Q
scaled log2 fold change [1]: 0.215
scaled log2 fold change [2]: -0.339

N135M
scaled log2 fold change [1]: -0.00864
scaled log2 fold change [2]: -0.104

N135K
scaled log2 fold change [1]: -0.148
scaled log2 fold change [2]: -0.129

N135G
scaled log2 fold change [1]: 0.0707
scaled log2 fold change [2]: -0.645

N135V
scaled log2 fold change [1]: 0.161
scaled log2 fold change [2]: 0.0375

N135T
scaled log2 fold change [1]: -0.162
scaled log2 fold change [2]: -0.382

N135F
scaled log2 fold change [1]: 0.44
scaled log2 fold change [2]: -0.599

N135D
scaled log2 fold change [1]: 0.117
scaled log2 fold change [2]: 0.905

N135W
scaled log2 fold change [1]: -0.118
scaled log2 fold change [2]: 0.554

N135P
scaled log2 fold change [1]: 0.887
scaled log2 fold change [2]: 0.821

K126V
scaled log2 fold change [1]: 0.162
scaled log2 fold change [2]: 0.807

K126S
scaled log2 fold change [1]: -0.46
scaled log2 fold change [2]: -0.133

K126T
scaled log2 fold change [1]: -0.51
scaled log2 fold change [2]: -0.395

K126W
scaled log2 fold change [1]: 0.411
scaled log2 fold change [2]: 0.186

K126Q
scaled log2 fold change [1]: -0.973
scaled log2 fold change [2]: -0.036

K126R
scaled log2 fold change [1]: -0.769
scaled log2 fold change [2]: -0.286

K126Y
scaled log2 fold change [1]: -0.263
scaled log2 fold change [2]: 0.0548

D132R
scaled log2 fold change [1]: -0.373
scaled log2 fold change [2]: -0.177

D132N
scaled log2 fold change [1]: -0.0637

D132G
scaled log2 fold change [1]: -0.0468
scaled log2 fold change [2]: 0.9

D132Q
scaled log2 fold change [1]: 0.014
scaled log2 fold change [2]: 0.0254

D132Y
scaled log2 fold change [1]: 0.176
scaled log2 fold change [2]: 1.12

D132P
scaled log2 fold change [1]: -0.221
scaled log2 fold change [2]: -0.681

D132T
scaled log2 fold change [1]: -0.0728
scaled log2 fold change [2]: -0.282

D132A
scaled log2 fold change [1]: -0.35
scaled log2 fold change [2]: -0.0723

D132K
scaled log2 fold change [1]: -0.0835
scaled log2 fold change [2]: 0.943

D132I
scaled log2 fold change [1]: -0.789

D132W
scaled log2 fold change [1]: -0.0682
scaled log2 fold change [2]: -0.335

D132C
scaled log2 fold change [1]: -0.0894
scaled log2 fold change [2]: -0.0904

D132F
scaled log2 fold change [1]: -0.0218
scaled log2 fold change [2]: -0.336

D132M
scaled log2 fold change [1]: -0.07
scaled log2 fold change [2]: -0.451

D132L
scaled log2 fold change [1]: 0.217
scaled log2 fold change [2]: -0.447

D132H
scaled log2 fold change [1]: 0.104
scaled log2 fold change [2]: -1.46

D132E
scaled log2 fold change [1]: 0.299
scaled log2 fold change [2]: 0.371

D132S
scaled log2 fold change [1]: -0.409
scaled log2 fold change [2]: 1.12

D132V
scaled log2 fold change [1]: 0.152
scaled log2 fold change [2]: -0.737

D139C
scaled log2 fold change [1]: -0.416
scaled log2 fold change [2]: -0.576

D139I
scaled log2 fold change [1]: -0.652
scaled log2 fold change [2]: 0.722

D139G
scaled log2 fold change [1]: -0.228
scaled log2 fold change [2]: -0.268

D139H
scaled log2 fold change [1]: -0.062
scaled log2 fold change [2]: -0.315

D139E
scaled log2 fold change [1]: 0.147
scaled log2 fold change [2]: 0.513

D139F
scaled log2 fold change [1]: 0.257
scaled log2 fold change [2]: 0.819

D139A
scaled log2 fold change [1]: 0.113
scaled log2 fold change [2]: -0.357

Reference: the supplement of paper PMC12855868
